According to IntAct's records for PubMed 17855368:

B1: DNA-binding protein inhibitor ID-1 (Homo sapiens), P41134 (parent)
chain: MKVASGSTATAAAGPSCALKAGKTASGAGEVVRCLSEQSVAISRCAGGAGARLPALLDEQQVNVLLYDMNGCYSRLKELVPTLPQNRKVSKVEILQHVIDYIRDLQLELNSESEVGTPGGRGLPVRAPLSTLNGEISALTAEAACVPADDRILCR

Variants of: B1
Details: with cav1_human CAV1, Q03135
Chain of cav1_human CAV1, Q03135 (Q03135 whole entry): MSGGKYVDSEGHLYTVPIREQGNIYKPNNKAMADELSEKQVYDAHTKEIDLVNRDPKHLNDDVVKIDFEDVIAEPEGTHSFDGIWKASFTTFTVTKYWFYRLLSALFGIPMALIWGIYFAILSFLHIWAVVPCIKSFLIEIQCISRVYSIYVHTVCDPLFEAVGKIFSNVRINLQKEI

effect of a mutation on the interaction	Variant
decreasing interaction	MKVASGSTATAAAGPSCALKAGKTASGAGEVVRCLSEQSVAISRCAGGAGARLPALLDEQQVNVLLYDMNGCYSRLKELVPTLPQNRKVSKVEILQHVIDDIRDLQLELNSESEVGTPGGRGLPVRAPLSTLNGEISALTAEAACVPADDRILCR [Y101D]
